Tests used:
human CD3 = target: T1, human CD3 (human, UniProt P07766 23-126, limits assumed); assay: affinity; method and construct not stated
T1 construct: also called CD3 epsilon

ENPP2 on CHOK1 cells = ENPP2 on CHOK1 cells (UniProt Q13822 36-863); assay: flow cytometry on CHO cells overexpressing ENPP2
human CD3 on T cells [1] = target: T2, human CD3 on T cells (human, UniProt P07766 23-207); assay: flow cytometry on human T cells, donor 110042593
T2 construct: on T cells it stands in the TCR-CD3 complex; also called human T cells; T cells isolated from healthy human donors

human ENPP3 on cells [2] = target: T3, human ENPP3 on cells (human, UniProt O14638 1-875); assay: cell-based or functional assay
T3 sequence (looked up): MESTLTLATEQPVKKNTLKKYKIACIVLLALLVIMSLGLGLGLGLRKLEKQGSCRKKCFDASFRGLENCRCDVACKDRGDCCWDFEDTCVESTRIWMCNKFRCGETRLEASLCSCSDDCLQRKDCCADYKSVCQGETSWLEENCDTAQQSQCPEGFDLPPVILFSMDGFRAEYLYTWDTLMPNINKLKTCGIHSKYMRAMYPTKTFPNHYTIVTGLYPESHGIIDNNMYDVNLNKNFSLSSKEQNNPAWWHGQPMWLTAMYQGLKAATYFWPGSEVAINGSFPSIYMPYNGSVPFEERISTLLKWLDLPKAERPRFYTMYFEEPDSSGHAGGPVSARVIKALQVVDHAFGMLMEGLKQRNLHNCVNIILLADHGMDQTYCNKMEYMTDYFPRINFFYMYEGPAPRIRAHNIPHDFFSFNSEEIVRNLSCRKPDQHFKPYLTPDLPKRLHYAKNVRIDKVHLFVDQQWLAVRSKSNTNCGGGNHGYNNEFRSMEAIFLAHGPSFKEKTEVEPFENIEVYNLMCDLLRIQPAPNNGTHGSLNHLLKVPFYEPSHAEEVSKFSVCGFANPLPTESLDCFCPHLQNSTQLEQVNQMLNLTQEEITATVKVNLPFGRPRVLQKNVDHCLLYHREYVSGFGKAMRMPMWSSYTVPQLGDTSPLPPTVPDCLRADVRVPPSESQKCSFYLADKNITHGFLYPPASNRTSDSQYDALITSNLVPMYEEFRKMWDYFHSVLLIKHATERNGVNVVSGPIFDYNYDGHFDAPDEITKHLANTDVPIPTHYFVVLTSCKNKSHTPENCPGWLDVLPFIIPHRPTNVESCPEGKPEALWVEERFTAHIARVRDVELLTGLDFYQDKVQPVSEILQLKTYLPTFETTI

human CD3 on T cells [3] = target: T2, human CD3 on T cells; assay: flow cytometry on human T cells, donor 110048457
human ENPP3 on cells [4] = target: T3, human ENPP3 on cells; assay: cell-based or functional assay; remark: listed apart in the source
human ENPP3 on cells [5] = target: T3, human ENPP3 on cells; assay: flow cytometry on CHO ENPP3 OE cells
human CD3 on T cells [6] = target: T2, human CD3 on T cells; assay: flow cytometry on human T cells, donor 110042496

T2 sequence (P07766 23-207 limits assumed): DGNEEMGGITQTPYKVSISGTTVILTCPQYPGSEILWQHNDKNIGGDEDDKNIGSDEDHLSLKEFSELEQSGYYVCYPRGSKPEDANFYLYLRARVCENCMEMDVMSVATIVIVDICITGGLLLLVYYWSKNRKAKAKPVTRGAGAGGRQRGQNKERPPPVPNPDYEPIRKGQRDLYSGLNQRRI
T1 sequence (P07766 23-126 limits assumed): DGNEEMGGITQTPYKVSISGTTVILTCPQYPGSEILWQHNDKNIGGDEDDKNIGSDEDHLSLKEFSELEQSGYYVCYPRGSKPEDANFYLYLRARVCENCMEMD

B1: NPP3B815 (bispecific antibody, human IgG1, kappa, L234A L235A)
heavy 1: EIVLTQSPATLSASPGERVTLSCSASSSVSYMNWYQQKPGCAPRRWIYDSSKLASGVPARFSGSGSGRDYTLTISSLEPEDFAVYYCQQWSRNPPTFGGGTKVEIKGGGSGGSGGCPPCGGSGGQVQLVQSGAEVKKPGSSVKVSCKASGYTFTRSTMHWVKQAPGQGLEWIGYINPSSAYTNYNQKFQGRVTLTADKSTSTAYMELSSLRSEDTAVYYCASPQVHYDYAGFPYWGCGTLVTVSSEPKSSDKTHTCPPCPAPEAAGGPSVFLFPPKPKDTLMISRTPEVTCVVVSVSHEDPEVKFNWYVDGVEVHNAKTKPREEQYNSTYRVVSVLTVLHQDWLNGKEYKCKVSNKALPAPIEKTISKAKGQPREPQVYTLPPSREEMTKNQVSLWCLVKGFYPSDIAVEWESNGQPENNYKTTPPVLDSDGSFFLYSKLTVDKSRWQQGNVFSCSVMHEALHNHYTQKSLSLSPGK
heavy 2: EVQLVESGGGRVKPGGSLRLSCAASGFTFSDYSMNWVRQAPGKGLEWVSSISSISSYVKYADSVKGRFTMSRDNAKNSLFLQMNSLRDEDMAVYYCARGHYFDYWGQGTLVTVSSASTKGPSVFPLAPSSKSTSGGTAALGCLVKDYFPEPVTVSWNSGALTSGVHTFPAVLQSSGLYSLSSVVTVPSSSLGTQTYICNVNHKPSNTKVDKKVEPKSCDKTHTCPPCPAPEAAGGPSVFLFPPKPKDTLMISRTPEVTCVVVSVSHEDPEVKFNWYVDGVEVHNAKTKPREEQYNSTYRVVSVLTVLHQDWLNGKEYKCKVSNKALPAPIEKTISKAKGQPREPQVYTLPPSREEMTKNQVSLSCAVKGFYPSDIAVEWESNGQPENNYKTTPPVLDSDGSFFLVSKLTVDKSRWQQGNVFSCSVMHEALHNRFTQKSLSLSPGK
light: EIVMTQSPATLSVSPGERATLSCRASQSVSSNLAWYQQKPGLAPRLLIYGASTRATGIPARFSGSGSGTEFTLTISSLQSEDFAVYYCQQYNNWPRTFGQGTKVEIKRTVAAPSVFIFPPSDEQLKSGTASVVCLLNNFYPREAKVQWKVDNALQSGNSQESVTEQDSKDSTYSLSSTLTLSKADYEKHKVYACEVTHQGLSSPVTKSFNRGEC
notes: HC2 carries the NPP3B56 Fab and the hole T366S, L368A, Y407V; Fc with L234A, L235A, D265S; The CPPC linker cysteines form disulfides with engineered Cys at L42 and H105 (Chothia); also called NPP3B56×CD3B2030-N106A; ENPP3×CD3 (NPP3B815)
Kd (human CD3): 110000 pM | binding result (ENPP2 on CHOK1 cells): no binding (tested: 100 nM) | EC50 (human CD3 on T cells [1]): 146000 pM | T-cell activation (CD25) EC50; A704; T-cell donor 110040278; E:T 3:1 (human ENPP3 on cells [2]): 8 pM | T-cell activation (CD25) EC50; A704; T-cell donor 110042496; E:T 3:1 (human ENPP3 on cells [2]): 17 pM | T-cell activation (CD25) EC50; A704; T-cell donor 110042593; E:T 3:1 (human ENPP3 on cells [2]): 13 pM | T-cell activation (CD25) EC50; A704; T-cell donor 110044049; E:T 3:1 (human ENPP3 on cells [2]): 8 pM | T-cell activation (CD25) EC50; A704; T-cell donor 110048457; E:T 3:1 (human ENPP3 on cells [2]): 10 pM | T-cell activation (CD25) EC50; A704; T-cell donor 888668965; E:T 3:1 (human ENPP3 on cells [2]): 8 pM | T-cell activation (CD25) EC50; VMRCRCW; T-cell donor 110040278; E:T 3:1 (human ENPP3 on cells [2]): 7 pM | T-cell activation (CD25) EC50; VMRCRCW; T-cell donor 110042496; E:T 3:1 (human ENPP3 on cells [2]): 15 pM | T-cell activation (CD25) EC50; VMRCRCW; T-cell donor 110042593; E:T 3:1 (human ENPP3 on cells [2]): 17 pM | T-cell activation (CD25) EC50; VMRCRCW; T-cell donor 110044049; E:T 3:1 (human ENPP3 on cells [2]): 9 pM | T-cell activation (CD25) EC50; VMRCRCW; T-cell donor 110048457; E:T 3:1 (human ENPP3 on cells [2]): 9 pM | T-cell activation (CD25) EC50; VMRCRCW; T-cell donor 888668965; E:T 3:1 (human ENPP3 on cells [2]): 16 pM | EC50 (human CD3 on T cells [3]): 132000 pM | killing EC50 @ 72 hrs; A704; T-cell donor 110040278; E:T 1:1 (human ENPP3 on cells [4]): 75 pM | killing EC50 @ 72 hrs; A704; T-cell donor 110040278; E:T 3:1 (human ENPP3 on cells [4]): 48.4 pM | killing EC50 @ 72 hrs; A704; T-cell donor 110042496; E:T 1:1 (human ENPP3 on cells [4]): 132 pM | killing EC50 @ 72 hrs; A704; T-cell donor 110042496; E:T 3:1 (human ENPP3 on cells [4]): 69.6 pM | killing EC50 @ 72 hrs; A704; T-cell donor 110042593; E:T 1:1 (human ENPP3 on cells [4]): 114 pM | killing EC50 @ 72 hrs; A704; T-cell donor 110042593; E:T 3:1 (human ENPP3 on cells [4]): 33.6 pM | killing EC50 @ 72 hrs; A704; T-cell donor 110044049; E:T 3:1 (human ENPP3 on cells [4]): 52.4 pM | killing EC50 @ 72 hrs; A704; T-cell donor 888668965; E:T 3:1 (human ENPP3 on cells [4]): 45.4 pM | killing EC50 @ 72 hrs; VMRCRCW; T-cell donor 110040278; E:T 1:1 (human ENPP3 on cells [4]): 243 pM | killing EC50 @ 72 hrs; VMRCRCW; T-cell donor 110040278; E:T 1:3 (human ENPP3 on cells [4]): 456 pM | killing EC50 @ 72 hrs; VMRCRCW; T-cell donor 110040278; E:T 3:1 (human ENPP3 on cells [4]): 92.3 pM | killing EC50 @ 72 hrs; VMRCRCW; T-cell donor 110042496; E:T 1:1 (human ENPP3 on cells [4]): 465 pM | killing EC50 @ 72 hrs; VMRCRCW; T-cell donor 110042496; E:T 3:1 (human ENPP3 on cells [4]): 128 pM | killing EC50 @ 72 hrs; VMRCRCW; T-cell donor 110042593; E:T 1:1 (human ENPP3 on cells [4]): 225 pM | killing EC50 @ 72 hrs; VMRCRCW; T-cell donor 110042593; E:T 3:1 (human ENPP3 on cells [4]): 79.5 pM | killing EC50 @ 72 hrs; VMRCRCW; T-cell donor 110044049; E:T 1:1 (human ENPP3 on cells [4]): 151 pM | killing EC50 @ 72 hrs; VMRCRCW; T-cell donor 110044049; E:T 1:3 (human ENPP3 on cells [4]): 226 pM | killing EC50 @ 72 hrs; VMRCRCW; T-cell donor 110044049; E:T 3:1 (human ENPP3 on cells [4]): 115 pM | killing EC50 @ 72 hrs; VMRCRCW; T-cell donor 110048457; E:T 1:1 (human ENPP3 on cells [4]): 177 pM | killing EC50 @ 72 hrs; VMRCRCW; T-cell donor 110048457; E:T 1:3 (human ENPP3 on cells [4]): 276 pM | killing EC50 @ 72 hrs; VMRCRCW; T-cell donor 110048457; E:T 3:1 (human ENPP3 on cells [4]): 372 pM | killing EC50 @ 72 hrs; VMRCRCW; T-cell donor 888668965; E:T 1:1 (human ENPP3 on cells [4]): 273 pM | killing EC50 @ 72 hrs; VMRCRCW; T-cell donor 888668965; E:T 1:3 (human ENPP3 on cells [4]): 469 pM | killing EC50 @ 72 hrs; VMRCRCW; T-cell donor 888668965; E:T 3:1 (human ENPP3 on cells [4]): 156 pM | killing EC50 @ 120 hrs; A704; T-cell donor 110040278; E:T 1:1 (human ENPP3 on cells [4]): 41 pM | killing EC50 @ 120 hrs; A704; T-cell donor 110040278; E:T 1:3 (human ENPP3 on cells [4]): 149 pM | killing EC50 @ 120 hrs; A704; T-cell donor 110042496; E:T 1:1 (human ENPP3 on cells [4]): 73 pM | killing EC50 @ 120 hrs; A704; T-cell donor 110042496; E:T 1:3 (human ENPP3 on cells [4]): 191 pM | killing EC50 @ 120 hrs; A704; T-cell donor 110042593; E:T 1:1 (human ENPP3 on cells [4]): 48 pM | killing EC50 @ 120 hrs; A704; T-cell donor 110042593; E:T 1:3 (human ENPP3 on cells [4]): 106 pM | killing EC50 @ 120 hrs; A704; T-cell donor 110044049; E:T 1:1 (human ENPP3 on cells [4]): 125 pM | killing EC50 @ 120 hrs; A704; T-cell donor 888668965; E:T 1:3 (human ENPP3 on cells [4]): 163 pM | killing EC50 @ 120 hrs; VMRCRCW; T-cell donor 110040278; E:T 1:1 (human ENPP3 on cells [4]): 264 pM | killing EC50 @ 120 hrs; VMRCRCW; T-cell donor 110040278; E:T 1:3 (human ENPP3 on cells [4]): 332 pM | killing EC50 @ 120 hrs; VMRCRCW; T-cell donor 110042496; E:T 1:1 (human ENPP3 on cells [4]): 454 pM | killing EC50 @ 120 hrs; VMRCRCW; T-cell donor 110042496; E:T 1:3 (human ENPP3 on cells [4]): 500 pM | killing EC50 @ 120 hrs; VMRCRCW; T-cell donor 110042593; E:T 1:1 (human ENPP3 on cells [4]): 218 pM | killing EC50 @ 120 hrs; VMRCRCW; T-cell donor 110042593; E:T 1:3 (human ENPP3 on cells [4]): 485 pM | killing EC50 @ 120 hrs; VMRCRCW; T-cell donor 110044049; E:T 1:1 (human ENPP3 on cells [4]): 216 pM | killing EC50 @ 120 hrs; VMRCRCW; T-cell donor 110044049; E:T 1:3 (human ENPP3 on cells [4]): 337 pM | killing EC50 @ 120 hrs; VMRCRCW; T-cell donor 110048457; E:T 1:1 (human ENPP3 on cells [4]): 210 pM | killing EC50 @ 120 hrs; VMRCRCW; T-cell donor 110048457; E:T 1:3 (human ENPP3 on cells [4]): 267 pM | killing EC50 @ 120 hrs; VMRCRCW; T-cell donor 888668965; E:T 1:1 (human ENPP3 on cells [4]): 345 pM | killing EC50 @ 120 hrs; VMRCRCW; T-cell donor 888668965; E:T 1:3 (human ENPP3 on cells [4]): 379 pM | EC50 (human ENPP3 on cells [5]): 510 pM | EC50 (human CD3 on T cells [6]): 147000 pM

Source: patent US20250163182A1 (Janssen / Centocor, published 2025)
